B1: ZNF649 (parent)
chain: LVAHQRYHTGKTPFVCPECGQPCS
B2: AUP1 (parent)
chain: FCASTRLPPTPLLLFPEEEATNGR

Variants of: B1
Experiment: protein stability index of a GFP-peptide fusion (GPS, HEK-293T) (PSI 1-6); higher = more stable
Details: c terminus: a fixed tail appended
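Note: lentivirally expressed fusions sorted by FACS into six bins by GFP to DsRed ratio, PSI derived from sequencing read proportions per bin multiplied by bin number.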

Variant	protein stability index
LVAHQAYHTGKTPFVCPECGQPCS	3.46
LVAHQHYHTGKTPFVCPECGQPCS	4.1
LVAHQSYHTGKTPFVCPECGQPCS	3.96
LVAHQTYHTGKTPFVCPECGQPCS	3.48
LVAHQKYHTGKTPFVCPECGQPCS	3.44
LVAHQMYHTGKTPFVCPECGQPCS	3.19
LVAHQPYHTGKTPFVCPECGQPCS	3.65
LVAHQIYHTGKTPFVCPECGQPCS	3.12
LVAHQEYHTGKTPFVCPECGQPCS	3.74
LVAHQVYHTGKTPFVCPECGQPCS	2.98
LVAHQWYHTGKTPFVCPECGQPCS	3.1
LVAHQDYHTGKTPFVCPECGQPCS	3.58
LVAHQGYHTGKTPFVCPECGQPCS	3.86
LVAHQFYHTGKTPFVCPECGQPCS	2.69
LVAHQYYHTGKTPFVCPECGQPCS	3.12
LVAHQQYHTGKTPFVCPECGQPCS	3.6
LVAHQLYHTGKTPFVCPECGQPCS	2.93
LVAHQCYHTGKTPFVCPECGQPCS	4.33
LVAHQNYHTGKTPFVCPECGQPCS	3.37
LVAHWRYHTGKTPFVCPECGQPCS	1.16
LVAHTRYHTGKTPFVCPECGQPCS	3.07
LVAHFRYHTGKTPFVCPECGQPCS	1.95
LVAHLRYHTGKTPFVCPECGQPCS	2.05
LVAHPRYHTGKTPFVCPECGQPCS	3.32

Variant	protein stability index
LVAHVRYHTGKTPFVCPECGQPCS	1.89
LVAHARYHTGKTPFVCPECGQPCS	3.22
LVAHDRYHTGKTPFVCPECGQPCS	3.74
LVAHCRYHTGKTPFVCPECGQPCS	2.86
LVAHKRYHTGKTPFVCPECGQPCS	3.03
LVAHSRYHTGKTPFVCPECGQPCS	3.14
LVAHMRYHTGKTPFVCPECGQPCS	2.24
LVAHRRYHTGKTPFVCPECGQPCS	3.06
LVAHIRYHTGKTPFVCPECGQPCS	3.78
LVAHYRYHTGKTPFVCPECGQPCS	2.74
LVAHNRYHTGKTPFVCPECGQPCS	3.15
LVAHHRYHTGKTPFVCPECGQPCS	3.11
LVAHERYHTGKTPFVCPECGQPCS	4.17
LVAHGRYHTGKTPFVCPECGQPCS	2.98
QVAHQRYHTGKTPFVCPECGQPCS	3.87
KVAHQRYHTGKTPFVCPECGQPCS	3.65
WVAHQRYHTGKTPFVCPECGQPCS	2.46
RVAHQRYHTGKTPFVCPECGQPCS	3.63
IVAHQRYHTGKTPFVCPECGQPCS	2.95
GVAHQRYHTGKTPFVCPECGQPCS	3.67
NVAHQRYHTGKTPFVCPECGQPCS	4.24
FVAHQRYHTGKTPFVCPECGQPCS	2.57
CVAHQRYHTGKTPFVCPECGQPCS	4.67
YVAHQRYHTGKTPFVCPECGQPCS	1.22

Variant	protein stability index
SVAHQRYHTGKTPFVCPECGQPCS	4.24
VVAHQRYHTGKTPFVCPECGQPCS	3.35
TVAHQRYHTGKTPFVCPECGQPCS	3.93
DVAHQRYHTGKTPFVCPECGQPCS	3.6
MVAHQRYHTGKTPFVCPECGQPCS	3.25
HVAHQRYHTGKTPFVCPECGQPCS	3.48
AVAHQRYHTGKTPFVCPECGQPCS	3.76
PVAHQRYHTGKTPFVCPECGQPCS	4.28
EVAHQRYHTGKTPFVCPECGQPCS	4.06
LVAHQRIHTGKTPFVCPECGQPCS	3.21
LVAHQRHHTGKTPFVCPECGQPCS	3.56
LVAHQRSHTGKTPFVCPECGQPCS	3.18
LVAHQRMHTGKTPFVCPECGQPCS	3.67
LVAHQRLHTGKTPFVCPECGQPCS	2.93
LVAHQRVHTGKTPFVCPECGQPCS	3.44
LVAHQRQHTGKTPFVCPECGQPCS	4.14
LVAHQRDHTGKTPFVCPECGQPCS	4.17
LVAHQRKHTGKTPFVCPECGQPCS	3.31
LVAHQRWHTGKTPFVCPECGQPCS	2.38
LVAHQRFHTGKTPFVCPECGQPCS	3.2
LVAHQRCHTGKTPFVCPECGQPCS	2.59
LVAHQREHTGKTPFVCPECGQPCS	4.45
LVAHQRAHTGKTPFVCPECGQPCS	3.83
LVAHQRNHTGKTPFVCPECGQPCS	3.73

Variant	protein stability index
LVAHQRPHTGKTPFVCPECGQPCS	4.04
LVAHQRGHTGKTPFVCPECGQPCS	3.68
LVAHQRTHTGKTPFVCPECGQPCS	3.28
LVAHQRRHTGKTPFVCPECGQPCS	2.75
LVAHQRYHIGKTPFVCPECGQPCS	3.77
LVAHQRYHQGKTPFVCPECGQPCS	3.31
LVAHQRYHEGKTPFVCPECGQPCS	3.7
LVAHQRYHYGKTPFVCPECGQPCS	3.31
LVAHQRYHDGKTPFVCPECGQPCS	3.77
LVAHQRYHRGKTPFVCPECGQPCS	2.76
LVAHQRYHCGKTPFVCPECGQPCS	2.65
LVAHQRYHNGKTPFVCPECGQPCS	3.05
LVAHQRYHVGKTPFVCPECGQPCS	3.06
LVAHQRYHSGKTPFVCPECGQPCS	3.1
LVAHQRYHKGKTPFVCPECGQPCS	2.52
LVAHQRYHFGKTPFVCPECGQPCS	3.62
LVAHQRYHGGKTPFVCPECGQPCS	3.53
LVAHQRYHHGKTPFVCPECGQPCS	2.6
LVAHQRYHWGKTPFVCPECGQPCS	2.9
LVAHQRYHMGKTPFVCPECGQPCS	3.16
LVAHQRYHLGKTPFVCPECGQPCS	2.92
LVAHQRYHPGKTPFVCPECGQPCS	2.88
LVAHQRYHAGKTPFVCPECGQPCS	2.77
LQAHQRYHTGKTPFVCPECGQPCS	3.62

Variant	protein stability index
LYAHQRYHTGKTPFVCPECGQPCS	2.81
LGAHQRYHTGKTPFVCPECGQPCS	3.81
LNAHQRYHTGKTPFVCPECGQPCS	3.39
LKAHQRYHTGKTPFVCPECGQPCS	2.91
LCAHQRYHTGKTPFVCPECGQPCS	4.4
LRAHQRYHTGKTPFVCPECGQPCS	3.36
LWAHQRYHTGKTPFVCPECGQPCS	2.57
LIAHQRYHTGKTPFVCPECGQPCS	3.1
LFAHQRYHTGKTPFVCPECGQPCS	2.78
LAAHQRYHTGKTPFVCPECGQPCS	3.28
LTAHQRYHTGKTPFVCPECGQPCS	4.06
LPAHQRYHTGKTPFVCPECGQPCS	3.5
LEAHQRYHTGKTPFVCPECGQPCS	4.4
LHAHQRYHTGKTPFVCPECGQPCS	4.09
LLAHQRYHTGKTPFVCPECGQPCS	3.09
LDAHQRYHTGKTPFVCPECGQPCS	3.87
LMAHQRYHTGKTPFVCPECGQPCS	3.34
LSAHQRYHTGKTPFVCPECGQPCS	3.49
LVAHQRYDTGKTPFVCPECGQPCS	3.54
LVAHQRYETGKTPFVCPECGQPCS	3.13
LVAHQRYWTGKTPFVCPECGQPCS	2.57
LVAHQRYLTGKTPFVCPECGQPCS	2.93
LVAHQRYMTGKTPFVCPECGQPCS	2.75
LVAHQRYQTGKTPFVCPECGQPCS	3.59

Variant	protein stability index
LVAHQRYITGKTPFVCPECGQPCS	3.21
LVAHQRYGTGKTPFVCPECGQPCS	2.52
LVAHQRYATGKTPFVCPECGQPCS	3.1
LVAHQRYVTGKTPFVCPECGQPCS	3.77
LVAHQRYNTGKTPFVCPECGQPCS	3.18
LVAHQRYPTGKTPFVCPECGQPCS	3.67
LVAHQRYKTGKTPFVCPECGQPCS	2.57
LVAHQRYSTGKTPFVCPECGQPCS	2.93
LVAHQRYCTGKTPFVCPECGQPCS	3.05
LVAHQRYFTGKTPFVCPECGQPCS	2.49
LVAHQRYYTGKTPFVCPECGQPCS	2.69
LVAHQRYRTGKTPFVCPECGQPCS	2.53
LVAHQRYTTGKTPFVCPECGQPCS	3.26
LVAVQRYHTGKTPFVCPECGQPCS	2.97
LVAIQRYHTGKTPFVCPECGQPCS	2.26
LVALQRYHTGKTPFVCPECGQPCS	1.81
LVAPQRYHTGKTPFVCPECGQPCS	3.4
LVATQRYHTGKTPFVCPECGQPCS	3.17
LVAGQRYHTGKTPFVCPECGQPCS	3.42
LVAAQRYHTGKTPFVCPECGQPCS	3.02
LVAWQRYHTGKTPFVCPECGQPCS	2.72
LVAEQRYHTGKTPFVCPECGQPCS	3.31
LVADQRYHTGKTPFVCPECGQPCS	3.98
LVAFQRYHTGKTPFVCPECGQPCS	2.76

Variant	protein stability index
LVAMQRYHTGKTPFVCPECGQPCS	2.76
LVANQRYHTGKTPFVCPECGQPCS	3.33
LVASQRYHTGKTPFVCPECGQPCS	2.87
LVACQRYHTGKTPFVCPECGQPCS	4.02
LVAQQRYHTGKTPFVCPECGQPCS	3.61
LVAKQRYHTGKTPFVCPECGQPCS	2.49
LVARQRYHTGKTPFVCPECGQPCS	2.77
LVAYQRYHTGKTPFVCPECGQPCS	2.64
LVAHQRYHTRKTPFVCPECGQPCS	2.78
LVAHQRYHTKKTPFVCPECGQPCS	2.83
LVAHQRYHTCKTPFVCPECGQPCS	3.44
LVAHQRYHTAKTPFVCPECGQPCS	3.15
LVAHQRYHTDKTPFVCPECGQPCS	3.96
LVAHQRYHTHKTPFVCPECGQPCS	3.24
LVAHQRYHTIKTPFVCPECGQPCS	3.5
LVAHQRYHTEKTPFVCPECGQPCS	3.57
LVAHQRYHTFKTPFVCPECGQPCS	3.44
LVAHQRYHTNKTPFVCPECGQPCS	3.37
LVAHQRYHTQKTPFVCPECGQPCS	3.28
LVAHQRYHTLKTPFVCPECGQPCS	3.64
LVAHQRYHTMKTPFVCPECGQPCS	3.44
LVAHQRYHTPKTPFVCPECGQPCS	3.09
LVYHQRYHTGKTPFVCPECGQPCS	2.38
LVDHQRYHTGKTPFVCPECGQPCS	4.3

Variant	protein stability index
LVHHQRYHTGKTPFVCPECGQPCS	3.59
LVVHQRYHTGKTPFVCPECGQPCS	2.46
LVTHQRYHTGKTPFVCPECGQPCS	3.47
LVWHQRYHTGKTPFVCPECGQPCS	2.57
LVEHQRYHTGKTPFVCPECGQPCS	4.14
LVFHQRYHTGKTPFVCPECGQPCS	2.23
LVLHQRYHTGKTPFVCPECGQPCS	2.69
LVMHQRYHTGKTPFVCPECGQPCS	2.71
LVRHQRYHTGKTPFVCPECGQPCS	3.14
LVQHQRYHTGKTPFVCPECGQPCS	3.68
LVNHQRYHTGKTPFVCPECGQPCS	2.71
LVIHQRYHTGKTPFVCPECGQPCS	3.32
LVCHQRYHTGKTPFVCPECGQPCS	4.11
LVPHQRYHTGKTPFVCPECGQPCS	3.24
LVGHQRYHTGKTPFVCPECGQPCS	3.68
LVSHQRYHTGKTPFVCPECGQPCS	3.58
LVKHQRYHTGKTPFVCPECGQPCS	3.41

Variants of: B2
Experiment: as above
Details: c terminus: a fixed tail appended

Variant	protein stability index
FCASTRLPPTPLLLFPEEEATNGY	1.88
FCASTRLPPTPLLLFPEEEATNGV	2.85
FCASTRLPPTPLLLFPEEEATNGW	1.34

Reference: the supplement of paper PMC10567573
